Measured values as given in patent publication US20220119489A1, “COMPOSITIONS AND METHODS FOR […] […] DYSTROPHY AND RELATED DISORDERS” (CHILDREN'S MEDICAL CENTER CORPORATION, published 2022).

B1: EF1A1_MOUSE (other)
chain: GKEKTHINIVVIGHVDSGKSTTTGHLIYKCGGIDKRTIEKFEKEAAEMGKGSFKYAWVLDKLKAERERGITIDISLWKFETSKYYVTIIDAPGHRDFIKNMITGTSQADCAVLIVAAGVGEFEAGISKNGQTREHALLAYTLGVKQLIVGVNKMDSTEPPYSQKRYEEIVKEVSTYIKKIGYNPDTVAFVPISGWNGDNMLEPSANMPWFKGWKVTRKDGSASGTTLLEALDCILPPTRPTDKPLRLPLQDVYKIGGIGTVPVGRVETGVLKPGMVVTFAPVNVTTEVKSVEMHHEALSEALPGDNVGFNVKNVSVKDVRRGNVAGDSKNDPPMEAAGFTAQVIILNHPGQISAGYAPVLDCHTAHIACKFAELKEKIDRRSGKKLEDGPKFLKSGDAAIVDMVPGKPMCVESFSDYPPLGRFAVRDMRQTVAVGVIKAVDKKAAGAGKVTKSAQKAQKAK
B2: QCR2_MOUSE (other)
chain: SLKVAPKVKTSAAPGGVPLQPQDLEFTKLPNGLVIASLENYAPLSRIGLFVKAGSRYEDSNNLGTSHLLRLASSLTTKGASSFKITRGIEAVGGKLSVTATRENMAYTVEGIRSDIEILMEFLLNVTTAPEFRRWEVAALRSQLKIDKAVAFQNSQTRIIENLHDVAYKNALANPLYCPDYRMGKITSEELHYFVQNHFTSARMALVGLGVSHSVLKQVAEQFLNMRGGLGLAGAKAKYRGGEIREQNGDNLVHAAIVAESAAIGNAEANAFSVLQHLLGAGPHIKRGNNTTSLLSQSVAKGSHQPFDVSAFNASYSDSGLFGIYTISQAAAAGEVINAAYNQVKAVAQGNLSSADVQAAKNKLKAGYLMSVETSEGFLSEIGSQALAAGSYMPPSTVLQQIDSVADADVVKAAKKFVSGKKSMAASGNLGHTPFLDEL
B3: PRDX1_MOUSE (enzyme)
chain: SSGNAKIGYPAPNFKATAVMPDGQFKDISLSEYKGKYVVFFFYPLDFTFVCPTEIIAFSDRADEFKKLNCQVIGASVDSHFCHLAWINTPKKQGGLGPMNIPLISDPKRTIAQDYGVLKADEGISFRGLFIIDDKGILRQITINDLPVGRSVDEIIRLVQAFQFTDKHGEVCPAGWKPGSDTIKPDVNKSKEYFSKQK
B4: LYZ1_MOUSE (enzyme)
chain: KVYNRCELARILKRNGMDGYRGVKLADWVCLAQHESNYNTRATNYNRGDRSTDYGIFQINSRYWCNDGKTPRSKNACGINCSALLQDDITAAIQCAKRVVRDPQGIRAWVAWRTQCQNRDLSQYIRNCGV
B5: Annexin 1 (mouse) (other)
chain: AMVSEFLKQARFLENQEQEYVQAVKSYKGGPGSAVSPYPSFNVSSDVAALHKAIMVKGVDEATIIDILTKRTNAQRQQIKAAYLQENGKPLDEVLRKALTGHLEEVVLAMLKTPAQFDADELRGAMKGLGTDEDTLIEILTTRSNEQIREINRVYREELKRDLAKDITSDTSGDFRKALLALAKGDRCQDLSVNQDLADTDARALYEAGERRKGTDVNVFTTILTSRSFPHLRRVFQNYGKYSQHDMNKALDLELKGDIEKCLTTIVKCATSTPAFFAEKLYEAMKGAGTRHKALIRIMVSRSEIDMNEIKVFYQKKYGISLCQAILDETKGDYEKILVALCGGN
B6: FBX50_MOUSE (other)
chain: MEKTQDRDTLSGRMEAEGSLNSEELPPHPQSPPPPPSPRSPTSPVTPELPQPNAPTEVEARQLLVEEWGPLSGKLELPPRISWQLLFLERPLYRNLLSSPNPEGINIYQPAPPTGPTRKPLKELGNFRGWYITTQNLQGPLSWTVKEQCVNLLAKKLWEELLDDEQPDITIMDWFEDSRLDQCVYELHVWLLAADRRTVIAQHHVAPRTNGRGPPGRWIQVSHVFRQYGPGVRFVYFQHKAKNRMEPGGLRRTRVTDSSVSVQLRE
B7: ALDOA_MOUSE (enzyme)
chain: PHPYPALTPEQKKELSDIAHRIVAPGKGILAADESTGSIAKRLQSIGTENTEENRRFYRQLLLTADDRVNPCIGGVILFHETLYQKADDGRPFPQVIKSKGGVVGIKVDKGVVPLAGTNGETTTQGLDGLSERCAQYKKDGADFAKWRCVLKIGEHTPSALAIMENANVLARYASICQQNGIVPIVEPEILPDGDHDLKRCQYVTEKVLAAVYKALSDHHVYLEGTLLKPNMVTPGHACTQKFSNEEIAMATVTALRRTVPPAVTGVTFLSGGQSEEEASINLNAINKCPLLKPWALTFSYGRALQASALKAWGGKKENLKAAQEEYIKRALANSLACQGKYTPSGQSGAAASESLFISNHAY
B8: Annexin 2 (mouse) (other)
chain: STVHEILCKLSLEGDHSTPPSAYGSVKPYTNFDAERDALNIETAVKTKGVDEVTIVNILTNRSNVQRQDIAFAYQRRTKKELPSALKSALSGHLETVILGLLKTPAQYDASELKASMKGLGTDEDSLIEIICSRTNQELQEINRVYKEMYKTDLEKDIISDTSGDFRKLMVALAKGRRAEDGSVIDYELIDQDARELYDAGVKRKGTDVPKWISIMTERSVCHLQKVFERYKSYSPYDMLESIKKEVKGDLENAFLNLVQCIQNKPLYFADRLYDSMKGKGTRDKVLIRIMVSRSEVDMLKIRSEFKRKYGKSLYYYIQQDTKGDYQKALLYLCGGDD
B9: CISY_MOUSE (enzyme)
chain: ASSTNLKDVLSNLIPKEQARIKTFKQQHGKTVVGQITVDMMYGGMRGMKGLVYETSVLDPDEGIRFRGYSIPECQKMLPKAKGGEEPLPEGLFWLLVTGQMPTEEQVSWLSREWAKRAALPSHVVTMLDNFPTNLHPMSQLSAAITALNSESNFARAYAEGMNRAKYWELIYEDCMDLIAKLPCVAAKIYRNLYREGSSIGAIDSRLDWSHNFTNMLGYTDPQFTELMRLYLTIHSDHEGGNVSAHTSHLVGSALSDPYLSFAAAMNGLAGPLHGLANQEVLVWLTQLQKEVGKDVSDEKLRDYIWNTLNSGRVVPGYGHAVLRKTDPRYSCQREFALKHLPKDPMFKLVAQLYKIVPNILLEQGKAKNPWPNVDAHSGVLLQYYGMTEMNYYTVLFGVSRALGVLAQLIWSRALGFPLERPKSMSTDGLMKFVDSK
B10: ENOA_MOUSE (enzyme)
chain: SILRIHAREIFDSRGNPTVEVDLYTAKGLFRAAVPSGASTGIYEALELRDNDKTRFMGKGVSQAVEHINKTIAPALVSKKVNVVEQEKIDKLMIEMDGTENKSKFGANAILGVSLAVCKAGAVEKGVPLYRHIADLAGNPEVILPVPAFNVINGGSHAGNKLAMQEFMILPVGASSFREAMRIGAEVYHNLKNVIKEKYGKDATNVGDEGGFAPNILENKEALELLKTAIAKAGYTDQVVIGMDVAASEFYRSGKYDLDFKSPDDPSRYITPDQLADLYKSFVQNYPVVSIEDPFDQDDWGAWQKFTASAGIQVVGDDLTVTNPKRIAKAASEKSCNCLLLKVNQIGSVTESLQACKLAQSNGWGVMVSHRSGETEDTFIADLVVGLCTGQIKTGAPCRSERLAKYNQILRIEEELGSKAKFAGRSFRNPLAK
B11: ENOB_MOUSE (enzyme)
chain: AMQKIFAREILDSRGNPTVEVDLHTAKGRFRAAVPSGASTGIYEALELRDGDKARYLGKGVLKAVEHINKTLGPALLEKKLSVVDQEKVDKFMIELDGTENKSKFGANAILGVSLAVCKAGAAEKGVPLYRHIADLAGNPDLVLPVPAFNVINGGSHAGNKLAMQEFMILPVGASSFKEAMRIGAEVYHHLKGVIKAKYGKDATNVGDEGGFAPNILENNEALELLKTAIQAAGYPDKVVIGMDVAASEFYRNGKYDLDFKSPDDPARHISGEKLGELYKNFIQNYPVVSIEDPFDQDDWATWTSFLSGVDIQIVGDDLTVTNPKRIAQAVEKKACNCLLLKVNQIGSVTESIQACKLAQSNGWGVMVSHRSGETEDTFIADLVVGLCTGQIKTGAPCRSERLAKYNQLMRIEEALGDKAVFAGRKFRNPKAK
B12: IGHG_RABIT (other)
chain: GQPKAPSVFPLAPCCGDTPSSTVTLGCLVKGYLPEPVTVTWNSGTLTNGVRTFPSVRQSSGLYSLSSVVSVTSSSQPVTCNVAHPATNTKVDKTVAPSTCSKPTCPPPELLGGPSVFIFPPKPKDTLMISRTPEVTCVVVDVSQDDPEVQFTWYINNEQVRTARPPLREQQFNSTIRVVSTLPITHQDWLRGKEFKCKVHNKALPAPIEKTISKARGQPLEPKVYTMGPPREELSSRSVSLTCMINGFYPSDISVEWEKNGKAEDNYKTTPAVLDSDGSYFLYNKLSVPTSEWQRGDVFTCSVMHEALHNHYTQKSISRSPGK
B13: IGG2B_MOUSE (other)
chain: KTTPPSVYPLAPGCGDTTGSSVTLGCLVKGYFPESVTVTWNSGSLSSSVHTFPALLQSGLYTMSSSVTVPSSTWPSQTVTCSVAHPASSTTVDKKLEPSGPISTINPCPPCKECHKCPAPNLEGGPSVFIFPPNIKDVLMISLTPKVTCVVVDVSEDDPDVQISWFVNNVEVHTAQTQTHREDYNSTIRVVSTLPIQHQDWMSGKEFKCKVNNKDLPSPIERTISKIKGLVRAPQVYILPPPAEQLSRKDVSLTCLVVGFNPGDISVEWTSNGHTEENYKDTAPVLDSDGSYFIYSKLNMKTSKWEKTDSFSCNVRHEGLKNYYLKKTISRSPGK
B14: Creatine Kinase, Muscle type (enzyme)
chain: not shown

Target: CD82 (mouse) (mouse, UniProt P40237)
Assay: IP with anti CD82 antibodies, mouse muscle tissue, mass spectrometry

Binder | Total | Unique
B1 | 2 | 2
B2 | 1 | 1
B3 | 3 | 2
B4 | 1 | 1
B5 | 2 | 2
B6 | 2 | 2
B7 | 3 | 3
B8 | 1 | 1
B9 | 2 | 2
B10 | 2 | 2
B11 | 7 | 7
B12 | 25 | 7
B13 | 1 | 1
B14 | 14 | 11
